Results: patent publication US20190002567A1 (LABORATOIRE FRANCAIS DU FRACTIONNEMENT ET DES …, published 2019)
Substitutions are numbered along the chain they refer to.

T1: human CD303 antigen (C-type lectin domain family 4 member C) (human, UniProt Q8WTT0 1-213)
T1 sequence: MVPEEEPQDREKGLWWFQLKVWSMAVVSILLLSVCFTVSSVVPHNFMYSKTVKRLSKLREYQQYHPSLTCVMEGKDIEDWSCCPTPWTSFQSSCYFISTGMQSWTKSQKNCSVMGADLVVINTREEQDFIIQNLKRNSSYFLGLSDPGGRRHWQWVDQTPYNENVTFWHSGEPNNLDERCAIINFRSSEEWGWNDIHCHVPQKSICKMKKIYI

B1: chimeric antibody 104C12 (antibody, human IgG1, kappa)
heavy: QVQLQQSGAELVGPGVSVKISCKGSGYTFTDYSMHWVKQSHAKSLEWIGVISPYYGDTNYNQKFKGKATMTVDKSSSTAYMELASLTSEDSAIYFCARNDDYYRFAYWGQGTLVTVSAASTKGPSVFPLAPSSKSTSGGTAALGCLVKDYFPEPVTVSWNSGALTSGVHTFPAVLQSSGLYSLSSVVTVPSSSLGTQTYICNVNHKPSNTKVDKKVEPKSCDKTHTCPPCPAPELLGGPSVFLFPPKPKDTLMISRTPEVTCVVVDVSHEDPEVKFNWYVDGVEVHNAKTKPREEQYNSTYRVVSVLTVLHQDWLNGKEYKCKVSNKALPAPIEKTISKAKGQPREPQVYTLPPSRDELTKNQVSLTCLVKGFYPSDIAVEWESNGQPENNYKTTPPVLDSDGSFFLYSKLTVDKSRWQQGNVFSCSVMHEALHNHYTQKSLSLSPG
light: DLQMTQTPSSLSASLGDRVTISCRASQDINNYLSWYQEKPDGTFKLLIYYTSRLHSGVPSRFSGSGSGTDYSLTVRNLEQEDIGTYFCQQGKTLPWTFGGGTKLEIRRTVAAPSVFIFPPSDEQLKSGTASVVCLLNNFYPREAKVQWKVDNALQSGNSQESVTEQDSKDSTYSLSSTLTLSKADYEKHKVYACEVTHQGLSSPVTKSFNRGEC
notes: Family 1
B2: chimeric antibody 104E10 (antibody, human IgG1, kappa)
heavy: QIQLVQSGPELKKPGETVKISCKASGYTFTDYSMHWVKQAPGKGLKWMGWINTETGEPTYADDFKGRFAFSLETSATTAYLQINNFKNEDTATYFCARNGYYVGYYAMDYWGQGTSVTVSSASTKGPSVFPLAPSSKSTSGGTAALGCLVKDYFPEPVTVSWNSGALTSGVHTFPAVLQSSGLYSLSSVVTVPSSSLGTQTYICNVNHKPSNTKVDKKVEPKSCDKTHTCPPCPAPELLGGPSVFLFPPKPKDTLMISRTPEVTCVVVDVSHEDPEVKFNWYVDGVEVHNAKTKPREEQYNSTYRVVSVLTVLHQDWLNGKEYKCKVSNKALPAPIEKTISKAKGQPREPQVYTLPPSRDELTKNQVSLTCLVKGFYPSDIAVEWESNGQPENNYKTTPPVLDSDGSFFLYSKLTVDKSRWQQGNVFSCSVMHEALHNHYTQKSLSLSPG
light: QIVLTQSPAIMSASPGEKVTMTCSASSSVIYMHWFQQKPGTSPKLWIYSTSNLASGVPARFSGSGSGTSYSLTISRMEAEDAATYYCQQRRSYPYTFGGGTKLEIKRTVAAPSVFIFPPSDEQLKSGTASVVCLLNNFYPREAKVQWKVDNALQSGNSQESVTEQDSKDSTYSLSSTLTLSKADYEKHKVYACEVTHQGLSSPVTKSFNRGEC
notes: Family 2
B3: chimeric antibody 102E9 (antibody, human IgG1, kappa)
heavy: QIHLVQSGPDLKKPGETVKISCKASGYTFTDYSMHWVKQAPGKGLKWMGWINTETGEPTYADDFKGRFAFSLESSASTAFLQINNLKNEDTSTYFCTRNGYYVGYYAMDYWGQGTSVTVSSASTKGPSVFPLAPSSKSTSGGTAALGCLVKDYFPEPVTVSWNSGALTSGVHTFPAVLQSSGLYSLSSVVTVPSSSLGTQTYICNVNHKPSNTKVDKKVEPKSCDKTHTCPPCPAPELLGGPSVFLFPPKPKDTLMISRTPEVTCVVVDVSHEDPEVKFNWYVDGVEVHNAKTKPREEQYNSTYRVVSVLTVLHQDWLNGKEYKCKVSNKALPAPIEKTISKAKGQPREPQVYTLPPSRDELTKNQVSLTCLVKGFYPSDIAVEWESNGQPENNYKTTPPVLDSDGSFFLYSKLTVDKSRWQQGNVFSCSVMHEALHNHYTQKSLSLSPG
light: B2 light with M21I, M32I, N52Y, Y95F
notes: Family 2; the text gives the same values for 102E9
B4: chimeric antibody 114D11 (antibody, human IgG1, kappa)
heavy: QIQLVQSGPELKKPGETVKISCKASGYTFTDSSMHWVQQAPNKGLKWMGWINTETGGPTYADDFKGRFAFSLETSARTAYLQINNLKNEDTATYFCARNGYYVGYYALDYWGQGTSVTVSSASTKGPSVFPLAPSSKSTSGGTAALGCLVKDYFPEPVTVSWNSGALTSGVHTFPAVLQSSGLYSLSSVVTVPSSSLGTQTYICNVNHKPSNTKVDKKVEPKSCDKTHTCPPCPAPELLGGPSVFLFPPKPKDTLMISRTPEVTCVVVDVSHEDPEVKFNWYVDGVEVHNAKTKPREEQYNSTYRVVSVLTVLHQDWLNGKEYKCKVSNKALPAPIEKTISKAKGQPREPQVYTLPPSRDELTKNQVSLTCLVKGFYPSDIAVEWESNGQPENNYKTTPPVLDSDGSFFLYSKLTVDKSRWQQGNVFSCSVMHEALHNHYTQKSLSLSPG
light: B2 light with M21I, I30F
notes: Family 2
B5: chimeric antibody 122A2 (antibody, human IgG1, kappa)
heavy: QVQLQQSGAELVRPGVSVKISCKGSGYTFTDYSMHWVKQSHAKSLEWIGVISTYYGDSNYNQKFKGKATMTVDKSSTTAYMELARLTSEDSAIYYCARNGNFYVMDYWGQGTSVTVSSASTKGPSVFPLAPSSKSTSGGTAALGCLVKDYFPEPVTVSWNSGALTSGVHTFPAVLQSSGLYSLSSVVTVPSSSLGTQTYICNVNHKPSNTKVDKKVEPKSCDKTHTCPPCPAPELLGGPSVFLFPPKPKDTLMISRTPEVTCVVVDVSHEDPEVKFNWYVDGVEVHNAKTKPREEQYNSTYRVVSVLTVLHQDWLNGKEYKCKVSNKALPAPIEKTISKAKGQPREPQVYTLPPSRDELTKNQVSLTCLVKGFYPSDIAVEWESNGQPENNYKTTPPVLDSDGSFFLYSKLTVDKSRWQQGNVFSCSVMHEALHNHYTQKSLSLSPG
light: DIQMTQTTSSLSASLGDRVTISCRASQDISNYLNWYQQKPDGTVKLLIYYTSRLHSGVPSRFSGSGSGTDYSLTISNLDQEDIATYFCQQGNTLPWTFGGGTKLEIKRTVAAPSVFIFPPSDEQLKSGTASVVCLLNNFYPREAKVQWKVDNALQSGNSQESVTEQDSKDSTYSLSSTLTLSKADYEKHKVYACEVTHQGLSSPVTKSFNRGEC
notes: Family 1; also called Ch; 122A2 mAb; Ch122A2 mAb

Biological target: T1, human CD303 antigen (C-type lectin …)
Assay: cell-based or functional assay

Binder | ADCC EC50 (ng/mL) on Fc Gamma chain-CD303 Jurkat target cells | ADCC Emax (% lysis) on Fc Gamma chain-CD303 Jurkat target cells
B1 | 0.214 ng/mL | 41.8 % lysis
B2 | 8.28 ng/mL | 40.5 % lysis
B3 | 3.42 ng/mL | 38.9 % lysis
B4 | 3.61 ng/mL | 37.4 % lysis
B5 | 0.159 ng/mL | 42.4 % lysis

Biological target: T2, FcγRIIIa (CD16a) (UniProt P08637 17-254, limits assumed)
T2 construct: whole, on cells; also called FcvRIIIa
Assay: competition with 3G8-PE for CD16 on NK cells, flow cytometry
Protocol: After washing, the binding of 3G8-PE to CD16 expressed by the NK cells was evaluated by flow cytometry. Mean fluorescence intensity (MFI) values are expressed as a percentage, 100% being the value obtained with the 3G8-PE antibody alone, and 0% the value obtained in the absence of 3G8-PE.

T2 sequence (P08637 17-254 limits assumed): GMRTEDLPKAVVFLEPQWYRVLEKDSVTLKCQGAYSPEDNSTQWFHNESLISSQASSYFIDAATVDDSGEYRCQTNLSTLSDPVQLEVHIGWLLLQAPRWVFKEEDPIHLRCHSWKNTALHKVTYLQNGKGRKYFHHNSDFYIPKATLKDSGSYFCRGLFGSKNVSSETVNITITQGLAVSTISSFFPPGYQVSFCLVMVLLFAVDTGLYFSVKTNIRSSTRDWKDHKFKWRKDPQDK

Binder | IC50
B1 | 26.8 µg/mL
B2 | 18.1 µg/mL
B3 | 37 µg/mL
B4 | 45 µg/mL
B5 | 40.4 µg/mL
